The values that follow come from publication PMC10643893 (2022).

B1: plasma kallikrein (zymogen) (natural protein)
chain: not shown
B2: high-molecular-weight kininogen (natural protein)
chain: QESQSEEIDCNDKDLFKAVDAALKKYNSQNQSNNQFVLYRITEATKTVGSDTFYSFKYEIKEGDCPVQSGKTWQDCEYKDAAKAATGECTATVGKRSSTKFSVATQTCQITPAEGPVVTAQYDCLGCVHPISTQSPDLEPILRHGIQYFNNNTQHSSLFMLNEVKRAQRQVVAGLNFRITYSIVQTNCSKENFLFLTPDCKSLWNGDTGECTDNAYIDIQLRIASFSQNCDIYPGKDFVQPPTKICVGCPRDIPTNSPELEETLTHTITKLNAENNATFYFKIDNVKKARVQVVAGKKYFIDFVARETTCSKESNEELTESCETKKLGQSLDCNAEVYVVPWEKKIYPTVNCQPLGMISLMKRPPGFSPFRSSRIGEIKEETTVSPPHTSMAPAQDEERDSGKEQGHTRRHDWGHEKQRKHNLGHGHKHERDQGHGHQRGHGLGHGHEQQHGLGHGHKFKLDDDLEHQGGHVLDHGHKHKHGHGHGKHKNKGKKNGKHNGWKTEHLASSSEDSTTPSAQTQEKTEGPTPIPSLAKPGVTVTFSDFQDSDLIATMMPPISPAPIQSDDDWIPDIQIDPNGLSFNPISDFPDTTSPKCPGRPWKSVSEINPTTQMKESYYFDLTDGLS
B3: factor XII (zymogen) (natural protein)
chain: IPPWEAPKEHKYKAEEHTVVLTVTGEPCHFPFQYHRQLYHKCTHKGRPGPQPWCATTPNFDQDQRWGYCLEPKKVKDHCSKHSPCQKGGTCVNMPSGPHCLCPQHLTGNHCQKEKCFEPQLLRFFHKNEIWYRTEQAAVARCQCKGPDAHCQRLASQACRTNPCLHGGRCLEVEGHRLCHCPVGYTGAFCDVDTKASCYDGRGLSYRGLARTTLSGAPCQPWASEATYRNVTAEQARNWGLGGHAFCRNPDNDIRPWCFVLNRDRLSWEYCDLAQCQTPTQAAPPTPVSPRLHVPLMPAQPAPPKPQPTTRTPPQSQTPGALPAKREQPPSLTRNGPLSCGQRLRKSLSSMTRVVGGLVALRGAHPYIAALYWGHSFCAGSLIAPCWVLTAAHCLQDRPAPEDLTVVLGQERRNHSCEPCQTLAVRSYRLHEAFSPVSYQHDLALLRLQEDADGSCALLSPYVQPVCLPSGAARPSETTLCQVAGWGHQFEGAEEYASFLQEAQVPFLSLERCSAPDVHGSSILPGMLCAGFLEGGTDACQGDSGGPLVCEDQAAERRLTLQGIISWGSGCGDRNKPGVYTDVAYYLAWIREHTVS

Usually Kd stands for a measure of binding affinity in units of concentration. Read a low Kd as higher affinity. The koff is the rate constant with which the complex falls apart. Low values mean slow dissociation, high ones fast dissociation.

The target in one experiment is T1, pneumolysin (Streptococcus pneumoniae, UniProt P0C2J9 1-471).
T1 chain: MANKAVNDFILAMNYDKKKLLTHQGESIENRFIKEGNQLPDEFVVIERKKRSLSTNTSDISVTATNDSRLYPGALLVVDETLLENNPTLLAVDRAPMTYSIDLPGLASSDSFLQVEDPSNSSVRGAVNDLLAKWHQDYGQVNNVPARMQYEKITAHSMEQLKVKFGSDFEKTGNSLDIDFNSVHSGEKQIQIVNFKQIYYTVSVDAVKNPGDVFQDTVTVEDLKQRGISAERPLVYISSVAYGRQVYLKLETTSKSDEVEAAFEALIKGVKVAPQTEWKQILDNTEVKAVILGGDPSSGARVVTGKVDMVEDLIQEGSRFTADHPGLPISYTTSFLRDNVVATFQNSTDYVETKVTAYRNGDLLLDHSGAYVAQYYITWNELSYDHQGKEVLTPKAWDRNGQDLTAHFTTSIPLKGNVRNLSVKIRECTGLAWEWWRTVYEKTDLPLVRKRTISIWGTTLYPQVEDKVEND
As to the kind of experiment: SPR.
As to B1, the Kd is 328 nM.
On the same count and under the same terms, to B2 belongs 12600 nM; to B3, 24.9 nM.

Another experiment addresses T1, pneumolysin. As to the kind of experiment: SPR. This is another data set of the same source. In general terms: Surface plasmon resonance follows binding to a sensor surface in real time, without labels.
Molecule B1 had a Ka of 3.04e+06 M⁻¹.
B2: the Ka was 573000 M⁻¹.
As for B3, the Ka was 4.41e+07 M⁻¹.

For another experiment, the target named is T1, pneumolysin. As to the kind of experiment: SPR. The source holds these as a separate data set.
The molecule B1 showed a koff of 0.00942 s⁻¹.
Still for that read-out and setting: to B2 belongs 0.00208 s⁻¹.
B3 gave a koff of 0.00198 s⁻¹. This koff and that of the molecule before are within 1.5-fold of each other.
